From article PMC9352680, “A comprehensive thermodynamic model for RNA binding by the Saccharomyces cerevisiae Pumilio protein PUF4”
Residue numbers refer to the chain shown, from its start. Names may count otherwise.

T1: PUF4 RNA-binding domain (Saccharomyces cerevisiae, UniProt P25339 537-888)
T1 sequence: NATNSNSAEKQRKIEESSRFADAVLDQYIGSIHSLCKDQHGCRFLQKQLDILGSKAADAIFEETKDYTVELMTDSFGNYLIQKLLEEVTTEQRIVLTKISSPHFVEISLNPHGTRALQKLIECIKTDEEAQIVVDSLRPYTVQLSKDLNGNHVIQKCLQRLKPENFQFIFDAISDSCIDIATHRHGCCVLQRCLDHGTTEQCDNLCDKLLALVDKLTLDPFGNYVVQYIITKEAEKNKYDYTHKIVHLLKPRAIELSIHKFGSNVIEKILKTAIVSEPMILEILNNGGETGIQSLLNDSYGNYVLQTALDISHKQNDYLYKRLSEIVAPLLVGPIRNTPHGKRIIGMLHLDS

B1: Ic_S2_P3E.1_K3.1_C3.1_H3.1_A3.1_[T5G]_[A6C]_F3.1_[T7G]_[A8T]_T3.1 (ssRNA)
RNA: UUUGAUUAAUAUGAUAUCGUUCUUUCUUGUAGCGUUUCUUUCUCGAUAUCAUAUUAAUCUUU
B2: Ic_S2_P3E.1_K3.1_C3.1_H3.1_A3.1_[T5G]_[A6T]_F3.1_[T7C]_[A8T]_T3.1 (ssRNA)
RNA: B1 RNA with C33U, G34C
B3: Ic_S2_P3E.1_K3.1_C3.1_H3.1_A3.1_[T5C]_F3.1_[T7G]_[A8C]_T3.1 (ssRNA)
RNA: B1 RNA with G32C, C33A, U35C
B4: Ic_S2_P3E.1_K3.1_C3.1_H3.1_A3.1_[T5G]_[A6T]_F3.1_[A8C]_T3.1 (ssRNA)
RNA: B1 RNA with C33U, G34U, U35C
B5: Ic_S2_P3E.1_K3.1_C3.1_H3.1_A3.1_[T5C]_[A6C]_F3.1_[T7A]_T3.1 (ssRNA)
RNA: B1 RNA with G32C, G34A, U35A
B6: Ic_S2_P3E.1_K3.1_C3.1_H3.1_A3.1_[T5G]_[A6C]_F3.1_[T7A]_T3.1 (ssRNA)
RNA: B1 RNA with G34A, U35A
B7: Ic_S2_P3E.1_K3.1_C3.1_H3.1_A3.1_[T5C]_[A6C]_F3.1_[T7G]_[A8T]_T3.1 (ssRNA)
RNA: B1 RNA with G32C
B8: Ic_S2_P3E.1_K3.1_C3.1_H3.1_A3.1_[T5C]_[A6C]_F3.1_[A8T]_T3.1 (ssRNA)
RNA: B1 RNA with G32C, G34U
B9: Ic_S2_P3E.1_K3.1_C3.1_H3.1_A3.1_[T5C]_[A6T]_F3.1_[T7C]_[A8C]_T3.1 (ssRNA)
RNA: B1 RNA with G32C, C33U, G34C, U35C
B10: Ic_S2_P3E.1_K3.1_C3.1_H3.1_A3.1_[T5G]_[A6T]_F3.1_[T7C]_T3.1 (ssRNA)
RNA: B1 RNA with C33U, G34C, U35A
B11: Ic_S2_P3E.1_K3.1_C3.1_H3.1_A3.1_[T5C]_[A6C]_F3.1_[T7C]_[A8T]_T3.1 (ssRNA)
RNA: B1 RNA with G32C, G34C
B12: Ic_S2_P3E.1_K3.1_C3.1_H3.1_A3.1_[T5C]_[A6T]_F3.1_[A8G]_T3.1 (ssRNA)
RNA: B1 RNA with G32C, C33U, G34U, U35G
B13: Ic_S2_P3E.1_K3.1_C3.1_H3.1_A3.1_[T5C]_[A6C]_F3.1_[T7C]_[A8G]_T3.1 (ssRNA)
RNA: B1 RNA with G32C, G34C, U35G
B14: Ic_S2_P3E.1_K3.1_C3.1_H3.1_A3.1_[T5C]_[A6T]_F3.1_[A8T]_T3.1 (ssRNA)
RNA: B1 RNA with G32C, C33U, G34U
B15: Ic_S2_P3E.1_K3.1_C3.1_H3.1_A3.1_[T5G]_[A6C]_F3.1_[A8T]_T3.1 (ssRNA)
RNA: B1 RNA with G34U
B16: Ic_S2_P3E.1_K3.1_C3.1_H3.1_A3.1_[T5C]_[A6C]_F3.1_[T7A]_[A8C]_T3.1 (ssRNA)
RNA: B1 RNA with G32C, G34A, U35C
B17: Ic_S2_P3E.1_K3.1_C3.1_H3.1_A3.1_[T5G]_[A6T]_F3.1_[T7A]_[A8T]_T3.1 (ssRNA)
RNA: B1 RNA with C33U, G34A
B18: Ic_S2_P3E.1_K3.1_C3.1_H3.1_A3.1_[T5C]_[A6T]_F3.1_[A8C]_T3.1 (ssRNA)
RNA: B1 RNA with G32C, C33U, G34U, U35C
B19: Ic_S2_P3E.1_K3.1_C3.1_H3.1_A3.1_[T5C]_[A6G]_F3.1_[T7G]_[A8C]_T3.1 (ssRNA)
RNA: B1 RNA with G32C, C33G, U35C
B20: Ic_S2_P3E.1_K3.1_C3.1_H3.1_A3.1_[T5G]_[A6C]_F3.1_[A8G]_T3.1 (ssRNA)
RNA: B1 RNA with G34U, U35G
B21: Ic_S2_P3E.1_K3.1_C3.1_H3.1_A3.1_[T5G]_[A6C]_F3.1_[T7C]_[A8C]_T3.1 (ssRNA)
RNA: B1 RNA with G34C, U35C
B22: Ic_S2_P3E.1_K3.1_C3.1_H3.1_A3.1_[T5G]_[A6T]_F3.1_[T7G]_[A8C]_T3.1 (ssRNA)
RNA: B1 RNA with C33U, U35C
B23: Ic_S2_P3E.1_K3.1_C3.1_H3.1_A3.1_[T5G]_[A6C]_F3.1_[T7C]_[A8G]_T3.1 (ssRNA)
RNA: B1 RNA with G34C, U35G
B24: Ic_S2_P3E.1_K3.1_C3.1_H3.1_A3.1_[T5C]_[A6G]_F3.1_[T7C]_[A8C]_T3.1 (ssRNA)
RNA: B1 RNA with G32C, C33G, G34C, U35C
B25: Ic_S2_P3E.1_K3.1_C3.1_H3.1_A3.1_[T5C]_[A6C]_F3.1_[T7A]_[A8T]_T3.1 (ssRNA)
RNA: B1 RNA with G32C, G34A
B26: Ic_S2_P3E.1_K3.1_C3.1_H3.1_A3.1_[T5G]_[A6T]_F3.1_[T7G]_[A8T]_T3.1 (ssRNA)
RNA: B1 RNA with C33U
B27: Ic_S2_P3E.1_K3.1_C3.1_H3.1_A3.1_[T5C]_[A6T]_F3.1_[T7A]_T3.1 (ssRNA)
RNA: B1 RNA with G32C, C33U, G34A, U35A
B28: Ic_S2_P3E.1_K3.1_C3.1_H3.1_A3.1_[T5C]_[A6T]_F3.1_[T7A]_[A8G]_T3.1 (ssRNA)
RNA: B1 RNA with G32C, C33U, G34A, U35G
B29: Ic_S2_P3E.1_K3.1_C3.1_H3.1_A3.1_[T5C]_[A6C]_F3.1_[A8G]_T3.1 (ssRNA)
RNA: B1 RNA with G32C, G34U, U35G

biological target: T1, PUF4 RNA-binding domain; assay: Mg; RNA-MaP; 20 mM Na-HEPES pH 7.4, 30 mM KOAc, 0.75 mM MgCl2, 0.1% Tween-20, 5% glycerol, 0.1 mg/mL BSA, 2 mM DTT; 25 C; 0.0125-409.6 nM protein; details: tags: N-His6-TEV cleaved; C-SNAP kept, Cy3B-labelled; label: tethered on chip by stalled RNA polymerase

| Binder | Kd [nM] |
| --- | --- |
| B1 | 163 |
| B2 | 70.3 |
| B3 | 35.4 |
| B4 | 191 |
| B5 | 30.1 |
| B6 | 506 |
| B7 | 55.6 |
| B8 | 7.54 |
| B9 | 126 |
| B10 | 751 |
| B11 | 12.6 |
| B12 | 107 |
| B13 | 259 |
| B14 | 9.88 |
| B15 | 18.6 |
| B16 | 81.3 |
| B17 | 27.7 |
| B18 | 36.4 |
| B19 | 536 |
| B20 | 156 |
| B21 | 526 |
| B22 | 390 |
| B23 | 996 |
| B24 | 126 |
| B25 | 3.72 |
| B26 | 105 |
| B27 | 33.9 |
| B28 | 692 |
| B29 | 17.7 |
